# Measurements: article PMC12473205, “Characterization of the Soybean GPAT Gene Family Identifies GmGPAT1 as a Key Protein in Salt Stress Tolerance” (Plants, 2025)
# Substrate: O=P(O)(O)OC[C@H](O)CO
# Experiment: purified protein
# Type: biochemical, Glycine max
# Conditions: 0.1 M phosphate buffer pH 7.2, acyl-CoA co-substrate not named, methods text mentions membrane protein, conclusions print 36.5 mmol L^-1
protein,measurement,value
GmGPAT1 (Glycine max) (protein) MSTTGSSAYHCVAHLPNNKTMFMLSTPPTTTFFATPRVLPFLSSKLSSSSSSSTASSSPCCSSITPKVKSKDNNNCYLVSAKHSPANMSASVSSRTFLNARNEQELLAGIRKEVEAGSLPANVAAGMEEVYNNYKSAVIQSGDPKSKEIVLSNMIALLDRIFLDVTDPFVFQPHHKAKREPFDYYVFGQNYIRPLVDFKNSYVGNMPLFIEMEEKLKQGHNIILMSNHQTEADPAIIALLLETRLPYIAENMTYVAGDRVITDPLSKPFSIGRNLICVYSKKHMLDDPALVEMKRNANIRALKEMAMLLRSGSQIVWIAPSGGRDRPDPHTGEWAPAPFDTSSVDNMRRLVEHSGPPGHVYPLAILCHDIMPPPLKVEKEIGEKRIISFHGTGISVAPALSFSETTATSENPEKAKEVFTKALYDSVTEQYNVLKSAIHGKKGFEASTPVVSLSQSWK,Km,36.47 mM
